The results in this text go back to article PMC9237840.

Assay in all cases: EMSA
One series deals with T1, CrebA full-length (Drosophila melanogaster, UniProt P29747 1-516).
T1 sequence: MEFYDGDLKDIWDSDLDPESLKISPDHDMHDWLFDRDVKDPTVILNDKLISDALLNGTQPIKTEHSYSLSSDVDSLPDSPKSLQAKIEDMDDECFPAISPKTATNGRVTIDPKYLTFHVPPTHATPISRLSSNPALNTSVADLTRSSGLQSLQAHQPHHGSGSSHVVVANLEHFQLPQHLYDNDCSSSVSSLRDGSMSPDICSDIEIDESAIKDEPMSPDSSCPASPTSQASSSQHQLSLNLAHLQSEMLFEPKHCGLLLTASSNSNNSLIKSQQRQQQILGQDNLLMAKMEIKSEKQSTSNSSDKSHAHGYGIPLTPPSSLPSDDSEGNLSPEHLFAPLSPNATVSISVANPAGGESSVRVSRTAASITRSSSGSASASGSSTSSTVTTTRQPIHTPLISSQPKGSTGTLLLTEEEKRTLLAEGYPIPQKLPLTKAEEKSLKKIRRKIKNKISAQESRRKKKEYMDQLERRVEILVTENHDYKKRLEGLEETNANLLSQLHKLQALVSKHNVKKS

The target of series [1] is T2, GST-Rib-PSQ DNA-binding domain (Drosophila melanogaster, UniProt Q7KF43 363-414).
T2 sequence: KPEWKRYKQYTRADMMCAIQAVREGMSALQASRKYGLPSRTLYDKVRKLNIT

Another series has as its target T3, Ribbon (Rib) full-length (Drosophila melanogaster, UniProt Q7KF43 1-661).
T3 sequence: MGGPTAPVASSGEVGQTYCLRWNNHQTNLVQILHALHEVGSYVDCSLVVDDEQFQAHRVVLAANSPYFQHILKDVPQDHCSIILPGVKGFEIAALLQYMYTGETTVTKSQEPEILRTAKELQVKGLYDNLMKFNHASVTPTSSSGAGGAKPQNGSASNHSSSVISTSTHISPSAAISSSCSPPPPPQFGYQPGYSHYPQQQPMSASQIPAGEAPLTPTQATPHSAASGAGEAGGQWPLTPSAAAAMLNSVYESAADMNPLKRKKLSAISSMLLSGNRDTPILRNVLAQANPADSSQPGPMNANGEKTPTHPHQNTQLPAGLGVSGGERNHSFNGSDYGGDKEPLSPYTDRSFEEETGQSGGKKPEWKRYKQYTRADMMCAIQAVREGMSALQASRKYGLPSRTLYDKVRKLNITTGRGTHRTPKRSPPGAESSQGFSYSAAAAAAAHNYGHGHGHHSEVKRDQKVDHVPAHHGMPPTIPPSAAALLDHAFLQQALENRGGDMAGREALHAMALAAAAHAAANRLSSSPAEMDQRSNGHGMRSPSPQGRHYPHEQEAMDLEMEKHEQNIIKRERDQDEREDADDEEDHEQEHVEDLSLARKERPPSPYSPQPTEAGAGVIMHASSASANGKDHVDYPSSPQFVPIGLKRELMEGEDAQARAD

B1: TSN-2 (dsDNA)
DNA 1: ATCTGATTTGGTGACGTTGGCACCCTGCA
DNA 2: TGCAGGGTGCCAACGTCACCAAATCAGAT
For B1, in the series with CrebA full-length, the binding result was “binds”.

B2: RpL7A (dsDNA)
DNA 1: AACTGCCACTTCCTTTCTTTTTCGTTCCACGTTTCCGGTGAGTGCATGTG
DNA 2: CACATGCACTCACCGGAAACGTGGAACGAAAAAGAAAGGAAGTGGCAGTT
On to B2, for which the binding result (in series [1]; in the series with Ribbon (Rib) full-length) was “binds” in each case.

B3: RpS17* (T to G in TC-rich motif) (dsDNA)
DNA 1: ACACAACCACCCTGGTCACACGGCATCCGGCGGGGGCGGGCGGGGCCGGC
DNA 2: GCCGGCCCCGCCCGCCCCCGCCGGATGCCGTGTGACCAGGGTGGTTGTGT
With B3, the binding result (in series [1]; with Ribbon (Rib) full-length) was “binds” throughout.

B4: RpL6 (dsDNA)
DNA 1: CCCTGGTCACACCGCTCTAGACATAACCTTCCTTTTCCAATAATTTTTGT
DNA 2: ACAAAAATTATTGGAAAAGGAAGGTTATGTCTAGAGCGGTGTGACCAGGG
With B4, the binding result (in series [1]; in the series with Ribbon (Rib) full-length) was “binds” throughout.

B5: RpL17 (dsDNA)
DNA 1: ACTGCCATTTCCTTTCTTTTTCGTTCCACGTTTCCGGTGAGTGCATGTGC
DNA 2: GCACATGCACTCACCGGAAACGTGGAACGAAAAAGAAAGGAAATGGCAGT
Consider B5, for which the binding result (in series [1]; in the series with Ribbon (Rib) full-length) was “binds” throughout.

B6: RpS17 (dsDNA)
DNA 1: ACACAACCACCCTGGTCACACGGCATCCTTCTTTTTCTTTCGTTTCCGGC
DNA 2: GCCGGAAACGAAAGAAAAAGAAGGATGCCGTGTGACCAGGGTGGTTGTGT
For B6, the binding result (in series [1]; with Ribbon (Rib) full-length) was “binds” in each case.

B7: RpS3 (dsDNA)
DNA 1: AACGTGTCTCGCGCGGGCACACTGGCCTCTTTCTTTTCTGCGCACCACGT
DNA 2: ACGTGGTGCGCAGAAAAGAAAGAGGCCAGTGTGCCCGCGCGAGACACGTT
Turning to B7, the binding result (in series [1]; in the series with Ribbon (Rib) full-length) was “binds” in each case.

B8: P24.1 (dsDNA)
DNA 1: CCGATAGCATATACGTGGGTCCGCAGTGC
DNA 2: GCACTGCGGACCCACGTATATGCTATCGG
Turning to B8, the binding result with CrebA full-length was “binds”.

B9: RpL11 (dsDNA)
DNA 1: CGCGGCCACACTATCCTTTCCTTCTTTTCTTACAAGTTTCCGGTGAGTGC
DNA 2: GCACTCACCGGAAACTTGTAAGAAAAGAAGGAAAGGATAGTGTGGCCGCG
In the case of B9, the binding result (in series [1]; in the series with Ribbon (Rib) full-length) was “binds” each time.

B10: RpL19 (dsDNA)
DNA 1: TTCCGGCTGTCAAATTTTTCTTTCTTTCCTAGCCACGACGAGGTCGACAG
DNA 2: CTGTCGACCTCGTCGTGGCTAGGAAAGAAAGAAAAATTTGACAGCCGGAA
On to B10, for which the binding result (in series [1]; with Ribbon (Rib) full-length) was “binds” throughout.

B11: RpS18 (dsDNA)
DNA 1: GGCAGCCACATTAATTCGGCCTTCTTTTCTTTTCCCGTTTCCGGTGAGTG
DNA 2: CACTCACCGGAAACGGGAAAAGAAAAGAAGGCCGAATTAATGTGGCTGCC
Consider B11, for which the binding result (in series [1]; in the series with Ribbon (Rib) full-length) was “binds” each time.

B12: RpS10b (dsDNA)
DNA 1: ATCCCTTCCGTTTCCCTTTCTTTTCGTCTTCACGTTTCCGGTGAGTGCGT
DNA 2: ACGCACTCACCGGAAACGTGAAGACGAAAAGAAAGGGAAACGGAAGGGAT
B12: the binding result (in series [1]; in the series with Ribbon (Rib) full-length) was “binds” in each case.

B13: RpS27A (dsDNA)
DNA 1: TTCAACTTCCTGTCACGCTGTGTGTGTGTTCTTTCTTTCCTTTGATTCTG
DNA 2: CAGAATCAAAGGAAAGAAAGAACACACACACAGCGTGACAGGAAGTTGAA
B13: the binding result (in series [1]; with Ribbon (Rib) full-length) was “binds” in each case.
